Experimental data taken from paper PMC4287557 (PLoS Pathogens, 2015).

Assays:
16055 gp120 monomer = 16055 gp120 monomer (HIV-1 subtype C strain 16055); test: BLI; settings: both partners purified
JRFL gp120 monomer = JRFL gp120 monomer (HIV-1 subtype B strain JRFL, UniProt Q75760); test: BLI; settings: both partners purified

B1: VRC01 IgG (antibody, V domains shown)
VH: QVQLVQSGGQMKKPGESMRISCRASGYEFIDCTLNWIRLAPGKRPEWMGWLKPRGGAVNYARPLQGRVTMTRDVYSDTAFLELRSLTVDDTAVYFCTRGKNCDYNWDFEHWGRGTPVIVSS
VL: EIVLTQSPGTLSLSPGETAIISCRTSQYGSLAWYQQRPGQAPRLVIYSGSTRAAGIPDRFSGSRWGPDYNLTISNLESGDFGVYYCQQYEFFGQGTKVQVD
notes: also called bNAb VRC01
binding result (16055 gp120 monomer): binds
binding result (JRFL gp120 monomer): binds
